# Literature values, collected in patent publication US20250205311A1, “PHARMACEUTICAL COMPOSITIONS OF SEMAGLUTIDE AND THE METHODS OF USE THEREOF” (PENTIDE THERAPEUTICS LIMITED, priority 2022, published 2025).
# Conditions: oral tablet
substance,measurement,value
"N6,26-{18-[N-(17-carboxyheptadecanoyl)-L-glutamyl]-1 0-oxo-3,6, 12, 15-tetraoxa-9, 18-diazaoctadecanoyl}-[8-(2-amino-2-propanoic acid), 34-L-arginine] human glucagon-like peptide 1 (7-37) [semaglutide]",oral bioavailability,0.4-1%
